Results taken from patent US20170037110A1 (IMMATICS BIOTECHNOLOGIES, published 2017).

B1: SLAALVVHV (peptide)
peptide: SLAALVVHV
B2: YLFEMDSSL (peptide)
peptide: YLFEMDSSL
B3: FLPDEPYIKV (peptide)
peptide: FLPDEPYIKV
B4: RMIEYFIDV (peptide)
peptide: RMIEYFIDV
B5: YLLPESVDL (peptide)
peptide: YLLPESVDL
B6: ILLTAIVQV (peptide)
peptide: ILLTAIVQV
B7: FLPEALDFV (peptide)
peptide: FLPEALDFV
B8: SQYSGQLHEV (peptide)
peptide: SQYSGQLHEV
B9: SLLEVNEESTV (peptide)
peptide: SLLEVNEESTV
B10: VLLDDIFAQL (peptide)
peptide: VLLDDIFAQL
B11: VMITKLVEV (peptide)
peptide: VMITKLVEV
B12: ALYELEGTTV (peptide)
peptide: ALYELEGTTV
B13: RLYTGMHTV (peptide)
peptide: RLYTGMHTV
B14: SLEPQIQPV (peptide)
peptide: SLEPQIQPV
B15: TLYGLSVLL (peptide)
peptide: TLYGLSVLL
B16: MTLGQIYYL (peptide)
peptide: MTLGQIYYL
B17: SLSDGLEEV (peptide)
peptide: SLSDGLEEV
B18: ALLGQTFSL (peptide)
peptide: ALLGQTFSL
B19: ALIAEGIALV (peptide)
peptide: ALIAEGIALV
B20: IISDLTIAL (peptide)
peptide: IISDLTIAL
B21: KMFEFVEPLL (peptide)
peptide: KMFEFVEPLL
B22: SLIPNLRNV (peptide)
peptide: SLIPNLRNV
B23: FMEGAIIYV (peptide)
peptide: FMEGAIIYV
B24: ALVNVQIPL (peptide)
peptide: ALVNVQIPL
B25: ALLELAEEL (peptide)
peptide: ALLELAEEL
B26: IMEENPGIFAV (peptide)
peptide: IMEENPGIFAV
B27: ALLQEGEVYSA (peptide)
peptide: ALLQEGEVYSA
B28: GLFEDVTQPGILL (peptide)
peptide: GLFEDVTQPGILL
B29: YSLSSVVTV (peptide)
peptide: YSLSSVVTV
B30: FLYDEIEAEV (peptide)
peptide: FLYDEIEAEV
B31: YLQDVVEQA (peptide)
peptide: YLQDVVEQA
B32: SIQQSIERLLV (peptide)
peptide: SIQQSIERLLV
B33: GLINTGVLSV (peptide)
peptide: GLINTGVLSV
B34: QLALKVEGV (peptide)
peptide: QLALKVEGV
B35: VLDRESPNV (peptide)
peptide: VLDRESPNV
B36: GLWEIENNPTVKA (peptide)
peptide: GLWEIENNPTVKA
B37: KLLGKLPEL (peptide)
peptide: KLLGKLPEL
B38: ALLDVTHSELTV (peptide)
peptide: ALLDVTHSELTV
B39: YLISELEAA (peptide)
peptide: YLISELEAA
B40: YLLETSGNL (peptide)
peptide: YLLETSGNL
B41: HIYDKVMTV (peptide)
peptide: HIYDKVMTV
B42: ALDEYTSEL (peptide)
peptide: ALDEYTSEL
B43: KVLDVSDLESV (peptide)
peptide: KVLDVSDLESV
B44: LILEGVDTV (peptide)
peptide: LILEGVDTV
B45: FLVEDLVDSL (peptide)
peptide: FLVEDLVDSL
B46: SLLELLHIYV (peptide)
peptide: SLLELLHIYV
B47: AILPQLFMV (peptide)
peptide: AILPQLFMV
B48: KVDTVWVNV (peptide)
peptide: KVDTVWVNV
B49: ALLSMTFPL (peptide)
peptide: ALLSMTFPL
B50: TLTKVLVAL (peptide)
peptide: TLTKVLVAL
B51: ALPVSLPQI (peptide)
peptide: ALPVSLPQI
B52: SQIALNEKLVNL (peptide)
peptide: SQIALNEKLVNL
B53: ALNDQVFEI (peptide)
peptide: ALNDQVFEI
B54: GLAPFTEGISFV (peptide)
peptide: GLAPFTEGISFV
B55: VLDELDMEL (peptide)
peptide: VLDELDMEL
B56: YLQDQHLLLTV (peptide)
peptide: YLQDQHLLLTV
B57: SIANFSEFYV (peptide)
peptide: SIANFSEFYV
B58: HLLSELEAAPYL (peptide)
peptide: HLLSELEAAPYL
B59: GLFDGVPTTA (peptide)
peptide: GLFDGVPTTA
B60: SMHDLVLQV (peptide)
peptide: SMHDLVLQV
B61: TLMTSLPAL (peptide)
peptide: TLMTSLPAL
B62: FIMPATVADATAV (peptide)
peptide: FIMPATVADATAV
B63: VLFDDELLMV (peptide)
peptide: VLFDDELLMV
B64: FLVDTPLARA (peptide)
peptide: FLVDTPLARA
B65: ILLDVKTRL (peptide)
peptide: ILLDVKTRL
B66: FLPDANSSV (peptide)
peptide: FLPDANSSV
B67: SLFKHDPAAWEA (peptide)
peptide: SLFKHDPAAWEA
B68: VLADIELAQA (peptide)
peptide: VLADIELAQA
B69: LLDSKVPSV (peptide)
peptide: LLDSKVPSV
B70: FLVTLNNVEV (peptide)
peptide: FLVTLNNVEV
B71: LLQNEQFEL (peptide)
peptide: LLQNEQFEL
B72: VIWKALIHL (peptide)
peptide: VIWKALIHL
B73: ILLERLWYV (peptide)
peptide: ILLERLWYV

Target: T1, HLA-A*02:01 (human)
T1 construct: monomers captured on streptavidin plates; also called MHC class I
Assay: UV peptide exchange ELISA
In short: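 Peptide-MHC complexes formed by UV-triggered exchange of a cleavable peptide for the test peptide, with stabilised complexes indicating binding. Exchange products diluted 100 fold onto streptavidin-coated wells, 1h at 37° C.; HRP anti-β2m (2 μg/ml), TMB, absorbance at 450 nm gives exchange yield.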

Compared with B1, B2 is lower in peptide exchange yield: 50 to 75% for the first, 20 to 50% for the second.

B3 and B4 fall in the same range of peptide exchange yield: 50 to 75% for the first, 50 to 75% for the second.

B5 and B6 fall in the same range of peptide exchange yield: 50 to 75% for the first, 50 to 75% for the second.

B7 and B8 fall in the same range of peptide exchange yield: 50 to 75% for the first, 50 to 75% for the second.

B9 and B10 fall in the same range of peptide exchange yield: 50 to 75% for the first, 50 to 75% for the second.

B11 and B12 fall in the same range of peptide exchange yield: 50 to 75% for the first, 50 to 75% for the second.

First: B13
Second: B14
The peptide exchange yield of the first is higher: 50 to 75% for the first, 20 to 50% for the second.

B15 and B16 fall in the same range of peptide exchange yield: 50 to 75% for the first, 50 to 75% for the second.

First: B17
Second: B18
The peptide exchange yield of the first is lower: 20 to 50% for the first, 50 to 75% for the second.

B19 and B20 fall in the same range of peptide exchange yield: 50 to 75% for the first, 50 to 75% for the second.

B21 and B22 cannot be ordered by peptide exchange yield: at least 75% for the first, 50 to 75% for the second.

B23 and B24 fall in the same range of peptide exchange yield: 50 to 75% for the first, 50 to 75% for the second.

B25 and B26 fall in the same range of peptide exchange yield: 50 to 75% for the first, 50 to 75% for the second.

B27 and B28 cannot be ordered by peptide exchange yield: 50 to 75% for the first, at least 75% for the second.

B29 and B30 fall in the same range of peptide exchange yield: 50 to 75% for the first, 50 to 75% for the second.

First: B31
Second: B32
The peptide exchange yield of the first is higher: 50 to 75% for the first, 20 to 50% for the second.

First: B33
Second: B34
The peptide exchange yield of the first is lower: 20 to 50% for the first, 50 to 75% for the second.

B35 and B36 cannot be ordered by peptide exchange yield: 50 to 75% for the first, at least 75% for the second.

B37 and B38 fall in the same range of peptide exchange yield: 50 to 75% for the first, 50 to 75% for the second.

B39 and B40 fall in the same range of peptide exchange yield: 50 to 75% for the first, 50 to 75% for the second.

B41 and B42 cannot be ordered by peptide exchange yield: 50 to 75% for the first, at least 75% for the second.

B43 and B44 fall in the same range of peptide exchange yield: 20 to 50% for the first, 20 to 50% for the second.

B45 and B46 fall in the same range of peptide exchange yield: 50 to 75% for the first, 50 to 75% for the second.

B47 and B48 cannot be ordered by peptide exchange yield: at least 75% for the first, 50 to 75% for the second.

B49 and B50 cannot be ordered by peptide exchange yield: at least 75% for the first, 50 to 75% for the second.

B51 and B52 fall in the same range of peptide exchange yield: 50 to 75% for the first, 50 to 75% for the second.

B53 and B54 fall in the same range of peptide exchange yield: 50 to 75% for the first, 50 to 75% for the second.

Compared with B55, B56 is higher in peptide exchange yield: 20 to 50% for the first, 50 to 75% for the second.

B57 and B58 cannot be ordered by peptide exchange yield: at least 75% for the first, at least 75% for the second.

B59 and B60 fall in the same range of peptide exchange yield: 50 to 75% for the first, 50 to 75% for the second.

B61 and B62 fall in the same range of peptide exchange yield: 50 to 75% for the first, 50 to 75% for the second.

B63 and B64 cannot be ordered by peptide exchange yield: 50 to 75% for the first, at least 75% for the second.

Compared with B65, B66 is lower in peptide exchange yield: at least 75% for the first, 20 to 50% for the second.

B67 and B68 cannot be ordered by peptide exchange yield: at least 75% for the first, 50 to 75% for the second.

B69 and B70 cannot be ordered by peptide exchange yield: 50 to 75% for the first, at least 75% for the second.

B71 and B72 fall in the same range of peptide exchange yield: 50 to 75% for the first, 50 to 75% for the second.

In the case of B73, the peptide exchange yield is reported as 50 to 75%.
